# According to the nanobody polyreactivity screen of Harvey et al. (2022):
# Test: yeast display, Sf9 membrane polyspecificity reagent, FACS + sequencing; frameworks hold sequencing errors
# Procedure, shortened: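 Polyreactivity labels are assigned by the sorting gate from which each nanobody was recovered. The gates were low and high (top ~1%), set on anti-HA fluorescence for expression and streptavidin fluorescence for reagent binding. Before sorting, galactose-induced (36–48 hours) yeast display cells were stained for 1 hour at 4 °C with 10% biotinylated, detergent-solubilized Sf9 membrane reagent.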
row,Sequence,polyreactivity (PSR sort gate)
1,QVQLVESGGGLVQAGGSLRLSCAASAFIFGRYVMGWYIQAPGKEREVVAAISWSGGRTYYADSVKGRFTISRDNAKNTVYLQMNSLKPEDTAVYYCAAESSYPSYDGYYWGQGTQVTVSS,high polyreactivity
2,QVQLVESGGGLVQAGGSLRLSCAASGSIFRRYAMGWYRQAPGKEREFVAAITRSGGGTYYADSVKGRFTISRDNAKNTVYLQMNSLKPEDTAVYYCAADAPNFGLYRDKDYDYWGQGTQVTVSS,high polyreactivity
3,QVQLVESGGGLVQAGGSLRLSCAASGSTFYAYAMGWYRQAPGKGGELVAAIDSGGSTYYADSVKGRFTISRDNAKNTVYLQMNSLKPEDTAVYYCAVRHRYTRAYWGRDYWGQGTQVTVSS,low polyreactivity
4,QVQLVESGGGLVQAGGSLRLSCAASGSISGYNAMGWYRQAPGQERELVAAIYRSDGTDYADSVKGRFTISRDNAKNTVYLQMNSLNPEDTAVYYCNADKWSVVGYVRGFYRDDYWGQGTQVTVSS,low polyreactivity
5,QVQLQESGGGLVQAGGSLRLSCAASGTISPLPAMGWYRQAPGKEREFVAGIDTGAITNYADSVKGRFTISRDNAKNTVYLQMISLKPEDTAVYYCAVFPAAYYYYERFYTYWGQGTQVTVSS,low polyreactivity
6,QVQLVESGGGLVQAGGSLRLSSAASGFTFAYYAMGWYRQAPGKERELVAAITRGGGRTFYADSVKGRFTISRDNAKNTVYLQMNSLKPEDTAVYYCAAVKDTTNSRGYGYWGQGTQVTVSS,high polyreactivity
7,QVQLVESGGGLVQAGGSLRLSCAASGSTFNIYVMGWYRQAPGKERELVAAISTSGRTYYADSVKGRFTISRDNAKNTVYLQMNSLKPEDTAVYYCNAGYWVRKYYHGGYWGQGTQVTVSS,high polyreactivity
8,QVQLVESGGGLVQAGGSLRLSCAASGQTFRRYDMGWYRQAPGKEREFVAAITWSTGSTYYADSVKGRFTISRDYAKNTVYLQMNSLKPEDTAGYYCAARSGYFYRYYKYDYWGQGTQVTVSS,high polyreactivity
9,QVQLVESGGGLVQAGGSLRLSCAASGRIFWYYAMGWYRQAPGKERELVATISYGGGNTYYADSVKGRFTISRDNAKNTVYLQMNSLKPEDTAVYYCARVPYAYLPYKPFQQYSYDYWGQGTQVTVSS,high polyreactivity
10,QVQLVESGGGLVQAGGSLRLSCAASGSIISVYVMGWYRQAPGTERELVASITSGASTNYADSVKGRFTISRDNETNTVYLQMNSLKPEDTAVYYCAARDWYDGFYYWGQGTQVTVSS,low polyreactivity
11,QVQLVESGGGLVQAGGSLRLSCAASGRIFSVYTKGWYRQAPGKERELVATISSGGRTNYADSVKGRFTISRDNAKNTVYLQINSLKPEDSAVYYCAAVPYGFVGYDDYWGQGSQVTVSS,low polyreactivity
12,QVQLVESGGGLVQAGGSLRLSCAASGRTFNPYVMGWYRQAPGKERELVARIRGSGTSTYYADSVKGRFTISRDNAKNTVYLQMNSLKPEDTAVYYCAAAQSKYSFYWGDYYYWGQGTQVTVSS,high polyreactivity
13,QVQLVESGGGLVQAGGSLRFICAASGRTFDWYAMGWYRPAPGKERELVAGNSWSGGSTYYADSVKGRFTISRDNAKNTVYLQMNSLKPEDTAVYYCAAEYPFEIGYVYYYIDYDYWGQGTQVTVSS,low polyreactivity
14,QVQLVESGGGLVQAGGSLRLSCAASGSIFYGYAMGWYRQAPGKEREFVASINSGVGSTYYADSVKGRFTISRDNAKNTVYLLMNSLKPEDTAVYYCNKVHRSFTYNDGQTPAYDYWGQRTQVTVSS,low polyreactivity
15,QVQLVESGGGLVQAGGSLRLSCAASGSIFRFYAMGWYRQATGKEREFVASITGTGGSTYYADSVKGRFTISRDNAKNTVYLQMNSLKPEDTAVYYCNARPYGWYDTYRLYGYWGQGTQVTVSS,high polyreactivity
16,QVQLVESGGGLVQAGGSLRLSCAASGSTFKYYAMGWYRQAPGKERELVAAISYRGGRTYYADSVKGRFTISRDNAKNTVNLQMNSLKPEDTAVYYCAAVKPYYIQYQGSAGYDYWGQGTQVTVSS,high polyreactivity

row,Sequence,polyreactivity (PSR sort gate)
1,QVQLVESGGGLVQAGGSLRLSCAASGRIFRYNAMGWYRQAPGKERELVAAISYRTGSTHYADSVKGRFTISRDNAKNTVYLQMNILKPEDTAVYYCAYVPGYCYWGQGTQVTVSS,low polyreactivity
2,QVQLLESRGGLVQAGGSLRLSCAASGSIFYIYAIGWYRQAPGKEREFVAAIRQSDGRTYYADSVKGRFTISRDNAKNTVYLQRTSLNPEDTAVYYCAAQYPVNYIWGYNDWGQGTQVTVSS,high polyreactivity
3,QVQLVESGGGLVQAAGSLRVSCAASGSTFSWNPMGWSIQAPGKERELVAASTSGGRTYYADSVKGRFTISRDNAKNTVYLQMNSLKPADTAVYYCAAYATIYRDMGYWGHGTQVTVSS,high polyreactivity
4,QVQLVESGGGLVQAGGSLRLSCAASGRIFPYYAMGWYRQAPGKERELVATISTAGSTNYADSVKGRFTISRDNAKNTVYLQMNSLKPEDTAVYYCATRNTWYHRGYDYWGQGTQVTVSS,low polyreactivity
5,QVQLVESGVGLVQAGGSLRLSCAASGRTFVNNAMGWYRQAPGKERELVAAISQSGSRTYYADSVKRRFTISRDNAKNTVYLQMNSLKPEDTAVYYCAARGARYSTSDYWGQGTQVTVSS,high polyreactivity
6,QGQLVESGGGLVQAGGSLRLSCAASGFTFPHYAMGWYRQAPGKERELVAAISWSGGSTFSADSVKGRFTISRDTAKNNVYLQMNSLKPADTAVYYCAARSRSWTPYYYWGQGTQVTVSS,high polyreactivity
7,QVQLVESGGCLVQAGGSLRLSCAASGYTFLYNAMGWYRQAPGKERELVATNTRGGSTNYADSVKGRFTISRDNAKNTVYLQMYSLKPEDTAVYYCNKEAAPLGFVPSYYGRDYWGHGTQVTVSS,low polyreactivity
8,QVQLVESGGGLVQAGGSLRLSCAASGIIFGKYDMGWYRQAPGKERELVAAITSGTSTNYADSVKGRFTISRDNAKNTVYLQMNSLKPEDTAVYYCAADVYLYYPYFGHRRYNYWGQGTQVTVSS,high polyreactivity
9,QVQLVESGGGLVQAGGSLRLSCAASGFTFTDYAKGWYRQAPGKERELVAAITKGGGRTYYADSVKWRFTISRDNAKNSVYLQMNSQKPEDTAVYYCNARYQVPYGYWGQGTQVTVSS,low polyreactivity
10,HAQLQESGGGLVQAGGSLRRSCAASGSIFRFSGMGWYRRAPGKERELVASIGFGSITYYADRVKGRFTMSRDNANNTVYLQKNSLKPEDTAVDYCAVQVQDESWLDYWGQGTQVTVSC,low polyreactivity
11,QVQLVESGGGLDQAGGSLRLSCAASGITFQGYAMGWYRQAPGKERELVAAINDSGSSTYYADSVKGRFTISRDNAKNTVYLQMNSLKPEDTAVYYCAAYLWFWGQGTQVTVSS,low polyreactivity
12,QVQLVESGGGLVQAGGSLRLSCAASGSIFYGNTMGWYRQAPGKERELVAAIDYRGDSTYYADSVKGRFTISRDNAKNTVYLQMNSLKPVDTAVYYCAADQTPVGQVYYGTLSIRDYWGQGTQVSVSS,low polyreactivity
13,QVQLVESGGGLVQAGCSLRLSCAASGYIFYNAMGWYRQAPGKERELVAAITSGGSTNYADSVKGRFTISRDNAKNTVYFQMNSLKPEDTADYYCNAVVYSPYRYEYWGQGTQVTVSS,low polyreactivity
14,QVQLVESGGGFVQAGGSLRLSCAASGINVSHYTMGWYRQAPGKERELVAGISRSGGSTYYADSVKGRFTISRDNAKNTVYLQMNSLKPDDTAVYYCAADGYGFVSPRGYNYWGQGTQVTVSS,high polyreactivity
15,QVQLVESGGGLVQAGGSLRLSCAASRRIFSQYAMGWSRQAPGKERELVAAITWRGASTYYADSVKGRFTISRDNAKNTVYLQMNSLKPEDTAVYYCAAGYPPGRYYRVRWVGYWGQGTQVTVSS,high polyreactivity
